One substance from patent publication US20190367620A1 can be followed below.

One assay has as its target Human FGF1 (human) (UniProt P05230). Nature of the assay: cell-based or functional assay.
Another assay has as its target Human FGF2 (human) (UniProt P09038). Nature of the assay: cell-based or functional assay.

Sequence of Human FGF1 (human) (P05230 16-155 limits assumed): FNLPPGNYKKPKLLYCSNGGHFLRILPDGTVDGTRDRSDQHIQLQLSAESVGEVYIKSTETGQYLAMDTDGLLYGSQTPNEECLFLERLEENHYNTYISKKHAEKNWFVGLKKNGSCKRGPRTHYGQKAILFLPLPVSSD
Sequence of Human FGF2 (human) (P09038 135-288 limits assumed): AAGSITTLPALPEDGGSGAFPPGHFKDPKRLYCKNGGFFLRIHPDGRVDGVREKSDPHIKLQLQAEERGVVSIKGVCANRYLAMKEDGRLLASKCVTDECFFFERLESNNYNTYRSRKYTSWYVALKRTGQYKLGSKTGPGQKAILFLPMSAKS

Substance FP-1039 (Fc fusion) had an IC50, inhibition of P-FGFR1 in NCI-H520 cells, FGF1 stimulated in the assay with Human FGF1 (human) of 50 nM. The IC50, inhibition of P-FGFR1 in NCI-H520 cells, FGF2 stimulated with Human FGF2 (human) came to 30 nM.
